Test results: patent publication US20260241035A1, “FUNCTIONAL NUCLEIC ACID MOLECULE AND METHOD” (THE UNIVERSITY COURT OF THE UNIVERSITY OF EDINBURGH, priority 2022, published 2026)

B1: CSE078: clustered SOX dimer motif enhancer, SEQ ID NO: 43 (nucleic acid)
DNA: TGTCGGGCAGCCAAGACCTGTCAGGGACAAGAGTGCTGTGAGCTGCGGGCTGGTGGGTGGAAGGAGAGAGGCCCCTGGTGCTCCTGCCAAGCCAAGGAATGTGTCATTGCTGTGCTGTGCCTTCAGCCTGGCATTTGGGAACAAAGAGGTACTTTGTATGGATAACATAGACCAGGTTGTTGGGGAAGGGATCAGAGATGGGGGTAGACCCATTTTTAAAAATCTGCTCATGTCCCAGGCAAGTTTTTTTGGCAGGGATTGCAGTTGGGCTATTACAAAGAGCTGCTGTACACGAGGGGTATGTCTACTACTGTCAAATTACAGCAGCAATTATCTTGGGCACTG
B2: CSE014: clustered SOX dimer motif enhancer, SEQ ID NO: 47 (nucleic acid)
DNA: GCCTTTTAGCTGATTAACAAATACAGTGAATTTAACTTTGTAGATTCTTAACATTTAAAGACAACAGTCTAAGGCAATTTAAAGTATATTCTGCCAATCAGTTGTTGAGTTAGACCACCCATAGCCTTTTTTTATTCTTCATTGTTTGAATAATATGGGAGGAAATTTAGTGTATACTCTCTTCTTCCTGTATTTTCCAGTTAGATTAAGCTGTTGTCTTCACAATTGCCTCCCAGCTGCTGTGACTTGTGAAAACAACAGACCCTGCTCTGTTGTCTGGAGAAAGCCGGGATTGTTATGAGTAACTTTATTGCAGGCACATGAGTGTGTTAAGACTTTAAAACACGCTCAAATGTCATGTGCACACCCAATGACGGGCAAGAATAATTATGAAAAAACAAGAAATCTATGTCTATGAAACCGTGTTGGACAAAATGGGCCATTCATTGTGTTCCCCTGGGAATGCCTGGACTCTGCAGTCAGAAAACAAAAAAGGCACTTTTTTCCTGCCGTAGGCTGAATGCTTAGCTTTGCCATCTGAGCCCTAAGAAAACATGGGCCCCTCTACTGCTGGCGCACCCACGCACACTAAAAAATATTAATGCCTCTCTCTCCTTACTTTTTTCCAGGCATTCCCTCGTGTAGGCTGTAGCCAATATAATGTCAACACAAA
B3: CSE033: clustered SOX dimer motif enhancer, SEQ ID NO: 46 (nucleic acid)
DNA: CTGGGGAACAAAACTTAGATCTTGATCATCCAGCATAGCTCTGGCATGCTGAGCGTGTGATACACCTGTCTCTACCGTCAGGCAAACGAGTGGGTTCACAGGCAGAGGCCTGCCCTGCCAAACAATGCTCCCCTTTGTCCCCGCCCAGGGCTCAGGAGCCGCAAGGAAGCCAAATCCATCAGCACTTGTCAGGGCCCTTGATGCACACAATGCAAGTTATGATCCACAGTCCCCGGCAAAGCCCCAGGCTTCCAGCAGGCAGCATTAACTGACACGCAATGTGTCAGTCAGCCTTCTAAAAGCCAGGGGTGGGGATCCGTGCCAGGGGGCCACTGAGCTCTCATTCCCAGAAGCCAACCAGAGCC
B4: CSE012: clustered SOX dimer motif enhancer, SEQ ID NO: 40 (nucleic acid)
DNA: GTAGAGAATAGATTCTGTAGGGCTTTTAACCTCCACTGTTATTCCAAGGATGGGGCTCAGCTTCCTTCTTTTCCTTTCTGACTCTGTCTATATCAAGGGTCCCGTGGGTTGTTCCTTTCCATTGTGGTCTCACTGCCCAGCTTTAAGGCACCATCCTGGCACAGTGATAGGTTTACCTTTGTCTAAAAGTGTCCATTTGCATCTCTGTGGCCTTCTTGCCTGGGTGACACCCACTTGATTAGGCATTTGCCCAGTGTGAGATCAGAGTCCCTCATTTACATTTCCCCACAATAGTGAATGGCTTACAGGCTGTTCAAATACAGTTTCTAAACAGTGAATAATTCAGCCAGAAAGCCAGCCTTTTAAGGTTTGGATTTGGGGCATTTCTGAG
B5: ID4328: enhancer fragment, SEQ ID NO: 7 (nucleic acid)
DNA: TACAATCTATTCTCCATAGTCATCAGAGTTTCTTTAAAGGCACGGTTCAGACAATGGCACCCTCTGTTCCAAACCCTCCAGGGCTTCCTATTTCACTTAGCATAAAAACCAAAGTCCTCACAATGACCGACAAGTCTTCACACAATGTGCCCCTTCATTG
B6: CSE088: clustered SOX dimer motif enhancer, SEQ ID NO: 44 (nucleic acid)
DNA: CTCGATACCCACATTCCTAACCTTTTAATGCCAAGCAGCCTATAAGCATGTCAAATTTTACTCATGTTCCTGCTCTTTCCACTCAAGTTGGCTTTGTGGGTTGCTGGTTTTATCAAAATTGAGTGAGAGTGTGTTCAATACAATGTTGGATTCATTAGGGAGAAAAAAGCCAAATAAAAACCTTGCTTCTTCAATGCCAGGAGCTTACAAAGACATATAAACCATGAGGAATTCCAAGGACTTGCTCAGAAGCCGTTCTGCAAATGCATTTCTTGAACAAAGGGCCAATGTTCCTTTCAGGGAAGAGCGCGGGACTGGTTTCCGGCATTTTTCTTTAAATCATTAGGACCATGCCAGCAAACAAACATATACAGCCCCTGGGAGAAAGAATCTCATTCAACACAGCTTACAAGAGTTTGATTATTAGGGAGGGGTGCTTCATGGCACGTGCCTCACCAGCCGGCCCCCAAATGTACAGATCTGTTTAAAGGGCTTTATTGATGGTGGCCGCAGACAGATAGAGCTTGTGAGGAGAACTGACATCCCATGGATACTAACATATCAGCATCATCCTGACCAGCACACAATCCAGTCAGAGAGAGCTGAAAAGTCTGCCTCATTCCCTTGAAAATGTGCTTCTTAAGACAAATAAAATATAGAAATAAGAAATTCACCTC
B7: CSE005: clustered SOX dimer motif enhancer, SEQ ID NO: 41 (nucleic acid)
DNA: TCCCTTGGAAAGTGTTCAAATCAAAGCTACCTTTATACCACACTCCTTTGTGTCCTGATGTCCTGAATAGTGAGATTATCGGGTACACCCACCTGTTCCTGCACTTCCTTCCTGCTCAATTTAAATAAACAATGAGCTGTTTTTCTTCTTGACAAAGAGCCAGTCTATACAACAGCAGCAGGAAGATTACTTTCTATCTGTATGCAAACAGATACATAGCTGAGTTCTCTCCAATCCCCGGGAAAAGACCCTTTTAACTAAATGACTTATGCTTCT
B8: CSE025: clustered SOX dimer motif enhancer, SEQ ID NO: 45 (nucleic acid)
DNA: ATGGACAATGGCAGCCTGAAAGAATATGAGGGAGGGTCACCAGTGATGGACATGGTTTGGGGAGAGCCCAAGAATTGAAGGGGACTTGGGATTGTTGACAGACCTTCCACATCTCAGAATGGGGGAAGTGGTTTCTTTTTTCCTCATTCTCCAAGGCTTCTCAGTCTCAGAGACCCCAAGAGATGCCATTAATACAGATTCCTCCTCTGGCTCCTTTGAGACATTTGCTTTTGAAGGACCTGGAAGAGAAAGCTCTTTGTATGTGGCCAGAATAAACTCATTGTACACCCAAACAATTAACTCCTCAATGGACTTGCCAGCCCCTTGAAAGGCCTGGCCCTGCGTCCCTGGACCTCTTGGGCTCTATTCAGTCCCTTAAGCACACCAATGTTTTTGGGTTTTTGTTTTGTTTTGTTTGTTATTCTGAAAAGTCTTTCCCTGAGAATAGTCTGAGCGGATCAACATTGTCCTCAGCCTGGCATTTATCTCTCCTCGCCAGCGAATGTCAATCAGGAATCAAAAAGCCAAACAGAGGAGGCTTTGAACGGTGTCATCGGGGGTCGAAGTGACTTCCAGCTGTCTGTGCGTGGGCCAGGCCTTCTCGCAGGGCAAGGAATTGTGCTGTCACACAAACCCACTGTCTGTATAGGCTCACAGAGCCCA
B9: CSE034: clustered SOX dimer motif enhancer, SEQ ID NO: 42 (nucleic acid)
DNA: GCCATAATTTGAACCTCGGAGTGCCCCACTGACAGCCAACGACACCAGAGGGTCCCTTTGTATGTAAGGATTGCATGACTCCAGTTGAATGACCCAAGCCGGGGACAAACAGGAAAGAACCCAGCAGCTCTGGAGGCCACTTGAGCTGACTGTCAAATGCTCTGGGCTGATTAACGACTACGAACTTCAGGGAAGACAAGTGTGCTTTGATGCCACAGAGCTATCCTGGGCCTGTACAGGCCCGTTTCTGCTCTGAATGAGGAAGCTGTACTTTGCAGGCACCCGGCAGAACAAGAATAGGGCCTAAGATACCTGAATGAAGGGCACAGAGGAAGTACAAAATACAGTCATTGTTGGAGCTAGAAGCTGGTGCCAGGCTACGAGGGGGCCCAGTGGCCAAGCATTATG

test system: GSC7 cells; experiment: Nano-Glo Dual-Luciferase Reporter (Nanoglo DLR) assay of enhancer activity, fold change to mCMV; assay type: cell-based, human; conditions: expression fold change of the individual enhancer compared to mCMV
From the text: We chose an arrayed library format, with 160 bp enhancer fragments individually cloned into separate plasmids and arrayed in 96 well plates. These 160 bp were synthesized as a single pool of oligos, then randomly cloned into the plasmid and isolated. 20 bp×2 were needed for PCR amplification of the pool and so a library of 200 bp fragments was synthesized (Twist Biosciences). To meet our oligo synthesis strategy, ChIP-seq peaks expressed by GSCs were merged into a single oligo. This oligonucleotide pool was PCR-amplified (using limited cycles to reduce bias and ‘jackpot’ products meaning products which are easier to amplify will overtake the oligonucleotide pool) and cloned into the expression vector by an efficient Golden Gate reaction. 4579 individual plasmids were then randomly picked, isolated and plated as an arrayed plasmid DNA library on 96 well plates (×48). The bacterial colony picking and production of plasmid minipreps were supported by the Edinburgh Genome Foundry (S. Rosser). This library was then screened using the optimised Nanoglo DLR assay (Nano-Glo Dual-Luciferase Reporter Assay, Promega) in 384 well format. Each plate was transiently transfected together with PGK-FFLuc in a 1:10 ratio into GSC7 cells. 2 days later a Nanoglo DLR assay was performed and assayed on a plate reader.
Cells were seeded in 384 well plates using a multidrop and transfected the following day using the CyBio Felix. Two days later the experiment was terminated with a Nanoglo DLR assay and all hits with a fold change to mCMV greater than 10 were Sanger sequenced and mapped back to the genome.
Cells were seeded at the required density. The following day the transfection was carried out. For this the Plus reagent and Lipofectamine LTX (Life Technologies, 15338030) were each diluted in half the volume of Opti-MEM I Reduced-Serum Medium (further referred to as Optimem) (Life Technologies, 31985062). Following this step, the Plus reagent/Optimem premix was added to all DNA samples followed by the Lipofectamine LTX/Optimem premix. The transfection mix was incubated for 5 min at room temperature and then carefully dropped on the cells. Generally, no media change was carried out. Cells were analysed two days following transfection.
This assay consists of two steps. The transfection was carried out using a normalisation plasmid PGK-Firefly-Luciferase (Promega, E5011) that was transfected in a 1/10 ratio with the plasmid of interest. First, the Firefly Luciferase activity is measured which allows to normalise to transfection efficiency. In a second step, the activity of Nanoluc is determined which is the readout of the plasmid of interest. Cells were washed 3× with PBS and 20 μl was left in the 96 well plate after the final wash (25 μl in 384 well). Oneglo buffer was added and the plate was shaken for 5 min at 480 rpm to allow cell lysis. 20 μl cell lysate in 96 well format or 25 μl cell lysate in 384 well format was then transferred into the corresponding opaque white plate and luminescence was measured at for 0.1 s per well using the Ensight Multimode Plate Reader. For the following Nanoluc reaction in a 96 well format 2 μl cell lysate was transferred into an opaque white plate containing 40 μl PBS, and 20 μl Stopglo buffer, supplemented with substrate, was added to each well. In a 384 well format 20 μl Stopglo buffer containing substrate were added on top of the undiluted cell lysate. The plate was shaken again for 5 min at 480 rpm to quench the firefly luciferase reaction and ensure good mixing. Nanoluc activity was measured for 0.1 s per well, again using Ensight Multimode Plate Reader.
Data obtained by the Nanoluc reaction was normalised to Firefly reaction to account for well-to-well variability of transfection efficiency. Normalised data were used to calculate the fold change to the empty vector control mCMV.

Molecule | Fold change (Median) [fold]
B1 | 10
B2 | 27.7
B3 | 20.9
B4 | 10.3
B5 | 100.7
B6 | 16.5
B7 | 11.5
B8 | 21.3
B9 | 14.3
